B1: E3 ubiquitin-protein ligase Midline-1 (Homo sapiens), O15344 (parent)
chain: METLESELTCPICLELFEDPLLLPCAHSLCFNCAHRILVSHCATNESVESITAFQCPTCRHVITLSQRGLDGLKRNVTLQNIIDRFQKASVSGPNSPSETRRERAFDANTMTSAEKVLCQFCDQDPAQDAVKTCVTCEVSYCDECLKATHPNKKPFTGHRLIEPIPDSHIRGLMCLEHEDEKVNMYCVTDDQLICALCKLVGRHRDHQVAALSERYDKLKQNLESNLTNLIKRNTELETLLAKLIQTCQHVEVNASRQEAKLTEECDLLIEIIQQRRQIIGTKIKEGKVMRLRKLAQQIANCKQCIERSASLISQAEHSLKENDHARFLQTAKNITERVSMATASSQVLIPEINLNDTFDTFALDFSREKKLLECLDYLTAPNPPTIREELCTASYDTITVHWTSDDEFSVVSYELQYTIFTGQANVVSLCNSADSWMIVPNIKQNHYTVHGLQSGTKYIFMVKAINQAGSRSSEPGKLKTNSQPFKLDPKSAHRKLKVSHDNLTVERDESSSKKSHTPERFTSQGSYGVAGNVFIDSGRHYWEVVISGSTWYAIGLAYKSAPKHEWIGKNSASWALCRCNNNWVVRHNSKEIPIEPAPHLRRVGILLDYDNGSIAFYDALNSIHLYTFDVAFAQPVCPTFTVWNKCLTIITGLPIPDHLDCTEQLP
partner: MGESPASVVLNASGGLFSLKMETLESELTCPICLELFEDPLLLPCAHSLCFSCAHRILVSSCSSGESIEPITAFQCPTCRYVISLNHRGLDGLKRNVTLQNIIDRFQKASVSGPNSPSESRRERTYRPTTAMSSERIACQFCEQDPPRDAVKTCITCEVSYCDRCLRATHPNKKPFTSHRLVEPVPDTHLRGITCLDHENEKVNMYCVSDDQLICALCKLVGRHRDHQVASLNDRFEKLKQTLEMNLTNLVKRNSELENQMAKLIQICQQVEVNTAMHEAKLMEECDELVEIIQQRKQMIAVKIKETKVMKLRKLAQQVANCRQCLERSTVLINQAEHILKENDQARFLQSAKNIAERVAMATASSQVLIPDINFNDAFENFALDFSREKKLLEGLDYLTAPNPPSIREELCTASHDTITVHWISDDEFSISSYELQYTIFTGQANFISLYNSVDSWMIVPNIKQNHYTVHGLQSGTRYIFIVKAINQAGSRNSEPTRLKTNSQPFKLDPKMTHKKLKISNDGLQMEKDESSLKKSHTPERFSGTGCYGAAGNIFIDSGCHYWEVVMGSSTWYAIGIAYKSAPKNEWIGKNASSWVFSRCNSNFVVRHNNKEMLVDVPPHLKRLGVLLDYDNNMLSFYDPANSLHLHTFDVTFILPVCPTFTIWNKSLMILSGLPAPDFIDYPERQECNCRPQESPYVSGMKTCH
B2: Neutrophil cytosol factor 2 (Homo sapiens), P19878 (parent)
chain: MSLVEAISLWNEGVLAADKKDWKGALDAFSAVQDPHSRICFNIGCMYTILKNMTEAEKAFTRSINRDKHLAVAYFQRGMLYYQTEKYDLAIKDLKEALIQLRGNQLIDYKILGLQFKLFACEVLYNIAFMYAKKEEWKKAEEQLALATSMKSEPRHSKIDKAMECVWKQKLYEPVVIPVGKLFRPNERQVAQLAKKDYLGKATVVASVVDQDSFSGFAPLQPQAAEPPPRPKTPEIFRALEGEAHRVLFGFVPETKEELQVMPGNIVFVLKKGNDNWATVMFNGQKGLVPCNYLEPVELRIHPQQQPQEESSPQSDIPAPPSSKAPGRPQLSPGQKQKEEPKEVKLSVPMPYTLKVHYKYTVVMKTQPGLPYSQVRDMVSKKLELRLEHTKLSYRPRDSNELVPLSEDSMKDAWGQVKNYCLTLWCENTVGDQGFPDEPKESEKADANNQTTEPQLKKGSQVEALFSYEATQPEDLEFQEGDIILVLSKVNEEWLEGECKGKVGIFPKVFVEDCATTDLESTRREV
B3: Progranulin (Homo sapiens), P28799 (parent)
chain: MWTLVSWVALTAGLVAGTRCPDGQFCPVACCLDPGGASYSCCRPLLDKWPTTLSRHLGGPCQVDAHCSAGHSCIFTVSGTSSCCPFPEAVACGDGHHCCPRGFHCSADGRSCFQRSGNNSVGAIQCPDSQFECPDFSTCCVMVDGSWGCCPMPQASCCEDRVHCCPHGAFCDLVHTRCITPTGTHPLAKKLPAQRTNRAVALSSSVMCPDARSRCPDGSTCCELPSGKYGCCPMPNATCCSDHLHCCPQDTVCDLIQSKCLSKENATTDLLTKLPAHTVGDVKCDMEVSCPDGYTCCRLQSGAWGCCPFTQAVCCEDHIHCCPAGFTCDTQKGTCEQGPHQVPWMEKAPAHLSLPDPQALKRDVPCDNVSSCPSSDTCCQLTSGEWGCCPIPEAVCCSDHQHCCPQGYTCVAEGQCQRGSEIVAGLEKMPARRASLSHPRDIGCDQHTSCPVGQTCCPSLGGSWACCQLPHAVCCEDRQHCCPAGYTCNVKARSCEKEVVSAQPATFLARSPHVGVKDVECGEGHFCHDNQTCCRDNRQGWACCPYRQGVCCADRRHCCPAGFRCAARGTKCLRREAPRWDAPLRDPALRQLL
partner: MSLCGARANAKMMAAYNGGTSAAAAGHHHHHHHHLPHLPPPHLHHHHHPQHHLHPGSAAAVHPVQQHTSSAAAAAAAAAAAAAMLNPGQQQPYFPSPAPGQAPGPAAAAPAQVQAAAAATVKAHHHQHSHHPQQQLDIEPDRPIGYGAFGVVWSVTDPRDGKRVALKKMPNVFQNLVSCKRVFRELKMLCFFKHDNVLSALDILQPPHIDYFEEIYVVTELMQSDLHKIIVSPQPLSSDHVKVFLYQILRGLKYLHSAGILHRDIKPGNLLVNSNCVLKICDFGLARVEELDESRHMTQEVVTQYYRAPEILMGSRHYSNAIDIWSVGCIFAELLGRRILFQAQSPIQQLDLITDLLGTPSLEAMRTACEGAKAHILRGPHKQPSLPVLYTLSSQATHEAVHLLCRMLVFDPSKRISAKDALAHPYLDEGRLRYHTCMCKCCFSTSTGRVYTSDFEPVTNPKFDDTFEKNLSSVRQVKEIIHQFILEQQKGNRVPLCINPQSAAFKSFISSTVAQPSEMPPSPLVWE
B4: Myozenin-2 (Homo sapiens), Q9NPC6 (parent)
chain: MLSHNTMMKQRKQQATAIMKEVHGNDVDGMDLGKKVSIPRDIMLEELSHLSNRGARLFKMRQRRSDKYTFENFQYQSRAQINHSIAMQNGKVDGSNLEGGSQQAPLTPPNTPDPRSPPNPDNIAPGYSGPLKEIPPEKFNTTAVPKYYQSPWEQAISNDPELLEALYPKLFKPEGKAELPDYRSFNRVATPFGGFEKASRMVKFKVPDFELLLLTDPRFMSFVNPLSGRRSFNRTPKGWISENIPIVITTEPTDDTTVPESEDL

Variants of: B1
Settings: with MID2, Q9UJV3-2

| effect of a mutation on the interaction | Variant |
| --- | --- |
| with no effect | C266R |
| with no effect | K370E |
| with no effect | P151L |
| with no effect | L626P |

Variants of: B2
Settings: with goga2_human GOLGA2, Q08379
goga2_human GOLGA2, Q08379, sequence (Q08379 whole entry): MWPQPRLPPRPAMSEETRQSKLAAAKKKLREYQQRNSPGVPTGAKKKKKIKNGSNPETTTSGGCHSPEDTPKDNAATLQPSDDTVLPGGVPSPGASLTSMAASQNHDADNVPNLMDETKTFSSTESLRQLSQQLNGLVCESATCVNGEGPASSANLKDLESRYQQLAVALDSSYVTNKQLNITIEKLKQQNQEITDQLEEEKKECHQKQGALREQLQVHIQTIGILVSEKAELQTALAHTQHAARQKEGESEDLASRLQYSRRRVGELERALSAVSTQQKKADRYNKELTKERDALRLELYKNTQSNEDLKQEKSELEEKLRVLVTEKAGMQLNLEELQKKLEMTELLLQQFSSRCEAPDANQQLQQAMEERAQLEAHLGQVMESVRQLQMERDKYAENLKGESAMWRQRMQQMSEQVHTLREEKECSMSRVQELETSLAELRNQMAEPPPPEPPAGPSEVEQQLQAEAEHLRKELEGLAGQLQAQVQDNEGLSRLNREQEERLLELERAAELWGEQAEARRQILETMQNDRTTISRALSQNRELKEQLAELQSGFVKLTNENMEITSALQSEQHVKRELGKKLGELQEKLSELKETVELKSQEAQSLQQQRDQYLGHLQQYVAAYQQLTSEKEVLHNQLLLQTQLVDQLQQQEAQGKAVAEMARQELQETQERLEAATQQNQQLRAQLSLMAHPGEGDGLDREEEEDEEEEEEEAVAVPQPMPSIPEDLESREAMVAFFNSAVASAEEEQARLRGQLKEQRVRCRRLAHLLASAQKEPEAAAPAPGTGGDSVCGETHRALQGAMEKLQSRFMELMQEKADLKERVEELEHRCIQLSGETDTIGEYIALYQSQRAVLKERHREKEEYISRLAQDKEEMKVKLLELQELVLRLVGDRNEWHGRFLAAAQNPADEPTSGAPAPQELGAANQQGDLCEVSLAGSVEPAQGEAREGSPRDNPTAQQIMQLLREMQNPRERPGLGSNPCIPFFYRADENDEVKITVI

| effect of a mutation on the interaction | Variant |
| --- | --- |
| disrupting interaction strength | G78E |
| with no effect | N419I |
| with no effect | R395W |
| disrupting interaction strength | R77Q |

Variants of: B2
Settings: with kifa3_human KIFAP3, Q92845
kifa3_human KIFAP3, Q92845, sequence (Q92845 whole entry): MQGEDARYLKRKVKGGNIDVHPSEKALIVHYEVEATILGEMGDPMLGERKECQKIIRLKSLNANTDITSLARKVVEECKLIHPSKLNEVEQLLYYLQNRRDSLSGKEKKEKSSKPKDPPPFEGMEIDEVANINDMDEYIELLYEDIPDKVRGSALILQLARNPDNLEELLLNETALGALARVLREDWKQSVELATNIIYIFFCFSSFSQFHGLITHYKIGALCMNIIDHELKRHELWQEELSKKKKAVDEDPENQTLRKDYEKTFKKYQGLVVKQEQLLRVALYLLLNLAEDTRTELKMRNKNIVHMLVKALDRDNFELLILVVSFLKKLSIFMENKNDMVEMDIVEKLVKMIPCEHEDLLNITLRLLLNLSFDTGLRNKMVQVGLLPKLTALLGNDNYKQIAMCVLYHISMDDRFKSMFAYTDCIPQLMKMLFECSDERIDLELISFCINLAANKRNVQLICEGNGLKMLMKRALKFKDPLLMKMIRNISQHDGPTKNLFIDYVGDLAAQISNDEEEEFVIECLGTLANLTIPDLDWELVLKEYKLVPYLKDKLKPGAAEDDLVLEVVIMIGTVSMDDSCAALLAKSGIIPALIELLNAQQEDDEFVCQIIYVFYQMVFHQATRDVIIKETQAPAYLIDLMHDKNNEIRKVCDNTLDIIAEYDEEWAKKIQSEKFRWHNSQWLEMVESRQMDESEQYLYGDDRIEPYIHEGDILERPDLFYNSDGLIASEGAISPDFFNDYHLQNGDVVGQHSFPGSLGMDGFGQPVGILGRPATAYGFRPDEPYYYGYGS

| effect of a mutation on the interaction | Variant |
| --- | --- |
| disrupting interaction strength | G78E |
| with no effect | N419I |
| with no effect | R395W |
| disrupting interaction strength | R77Q |

Variants of: B3
Settings: with nlk_human NLK

| effect of a mutation on the interaction | Variant |
| --- | --- |
| with no effect | P248L |
| disrupting interaction strength | R432C |
| disrupting interaction strength | P451L |
| disrupting interaction strength | A9D |

Variants of: B4
Settings: with actn2_human ACTN2, P35609
actn2_human ACTN2, P35609, sequence (P35609 whole entry): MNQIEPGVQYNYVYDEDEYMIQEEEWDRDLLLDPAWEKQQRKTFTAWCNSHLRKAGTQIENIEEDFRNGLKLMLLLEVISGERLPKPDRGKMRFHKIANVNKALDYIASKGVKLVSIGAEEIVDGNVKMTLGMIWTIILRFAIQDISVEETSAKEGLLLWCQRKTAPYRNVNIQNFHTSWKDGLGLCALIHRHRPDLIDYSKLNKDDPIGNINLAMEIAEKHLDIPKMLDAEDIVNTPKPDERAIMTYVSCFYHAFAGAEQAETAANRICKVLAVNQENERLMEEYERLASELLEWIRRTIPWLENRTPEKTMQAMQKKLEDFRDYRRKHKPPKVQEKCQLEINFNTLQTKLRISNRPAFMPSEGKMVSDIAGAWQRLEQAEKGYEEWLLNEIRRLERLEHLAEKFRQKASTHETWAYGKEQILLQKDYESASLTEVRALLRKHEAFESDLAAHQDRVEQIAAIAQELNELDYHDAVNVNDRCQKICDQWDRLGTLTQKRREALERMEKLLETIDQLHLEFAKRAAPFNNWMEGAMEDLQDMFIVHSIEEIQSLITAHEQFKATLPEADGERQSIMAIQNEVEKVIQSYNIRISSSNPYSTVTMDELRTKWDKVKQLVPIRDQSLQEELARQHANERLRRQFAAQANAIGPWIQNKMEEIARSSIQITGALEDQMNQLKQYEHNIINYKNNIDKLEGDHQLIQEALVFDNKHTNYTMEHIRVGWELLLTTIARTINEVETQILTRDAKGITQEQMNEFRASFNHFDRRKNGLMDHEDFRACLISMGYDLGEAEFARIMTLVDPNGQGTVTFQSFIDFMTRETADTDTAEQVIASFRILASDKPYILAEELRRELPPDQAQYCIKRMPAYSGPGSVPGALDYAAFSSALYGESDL

| effect of a mutation on the interaction | Variant |
| --- | --- |
| with no effect | Q10P |
| with no effect | S48P |

Variants of: B4
Settings: with actn1_human ACTN1, P12814
actn1_human ACTN1, P12814, sequence (P12814 whole entry): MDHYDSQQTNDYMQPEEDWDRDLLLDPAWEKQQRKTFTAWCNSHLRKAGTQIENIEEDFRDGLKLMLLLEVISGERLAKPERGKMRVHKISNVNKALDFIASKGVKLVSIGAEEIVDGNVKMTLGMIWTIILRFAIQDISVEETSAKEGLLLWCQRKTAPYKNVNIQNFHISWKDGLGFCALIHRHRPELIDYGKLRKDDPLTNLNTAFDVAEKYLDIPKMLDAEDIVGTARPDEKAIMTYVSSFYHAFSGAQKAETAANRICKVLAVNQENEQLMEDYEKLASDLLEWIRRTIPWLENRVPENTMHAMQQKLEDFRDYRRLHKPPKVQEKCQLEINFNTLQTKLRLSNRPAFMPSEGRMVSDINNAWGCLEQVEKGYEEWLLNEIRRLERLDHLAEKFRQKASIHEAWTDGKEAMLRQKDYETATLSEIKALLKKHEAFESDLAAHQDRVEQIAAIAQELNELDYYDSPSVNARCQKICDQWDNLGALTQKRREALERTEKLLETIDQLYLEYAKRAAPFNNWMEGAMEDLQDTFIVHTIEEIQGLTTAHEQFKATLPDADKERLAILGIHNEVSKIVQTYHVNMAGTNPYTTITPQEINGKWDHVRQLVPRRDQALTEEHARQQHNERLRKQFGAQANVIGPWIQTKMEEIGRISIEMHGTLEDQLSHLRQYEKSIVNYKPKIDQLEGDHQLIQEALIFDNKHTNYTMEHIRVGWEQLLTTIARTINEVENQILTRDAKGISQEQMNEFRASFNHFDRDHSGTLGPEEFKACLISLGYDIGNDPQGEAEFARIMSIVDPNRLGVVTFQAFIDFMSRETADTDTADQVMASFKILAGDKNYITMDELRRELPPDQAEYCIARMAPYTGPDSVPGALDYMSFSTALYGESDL

| effect of a mutation on the interaction | Variant |
| --- | --- |
| with no effect | Q10P |
| with no effect | S48P |

Variants of: B4
Settings: with actn4_human ACTN4, O43707
actn4_human ACTN4, O43707, sequence (O43707 whole entry): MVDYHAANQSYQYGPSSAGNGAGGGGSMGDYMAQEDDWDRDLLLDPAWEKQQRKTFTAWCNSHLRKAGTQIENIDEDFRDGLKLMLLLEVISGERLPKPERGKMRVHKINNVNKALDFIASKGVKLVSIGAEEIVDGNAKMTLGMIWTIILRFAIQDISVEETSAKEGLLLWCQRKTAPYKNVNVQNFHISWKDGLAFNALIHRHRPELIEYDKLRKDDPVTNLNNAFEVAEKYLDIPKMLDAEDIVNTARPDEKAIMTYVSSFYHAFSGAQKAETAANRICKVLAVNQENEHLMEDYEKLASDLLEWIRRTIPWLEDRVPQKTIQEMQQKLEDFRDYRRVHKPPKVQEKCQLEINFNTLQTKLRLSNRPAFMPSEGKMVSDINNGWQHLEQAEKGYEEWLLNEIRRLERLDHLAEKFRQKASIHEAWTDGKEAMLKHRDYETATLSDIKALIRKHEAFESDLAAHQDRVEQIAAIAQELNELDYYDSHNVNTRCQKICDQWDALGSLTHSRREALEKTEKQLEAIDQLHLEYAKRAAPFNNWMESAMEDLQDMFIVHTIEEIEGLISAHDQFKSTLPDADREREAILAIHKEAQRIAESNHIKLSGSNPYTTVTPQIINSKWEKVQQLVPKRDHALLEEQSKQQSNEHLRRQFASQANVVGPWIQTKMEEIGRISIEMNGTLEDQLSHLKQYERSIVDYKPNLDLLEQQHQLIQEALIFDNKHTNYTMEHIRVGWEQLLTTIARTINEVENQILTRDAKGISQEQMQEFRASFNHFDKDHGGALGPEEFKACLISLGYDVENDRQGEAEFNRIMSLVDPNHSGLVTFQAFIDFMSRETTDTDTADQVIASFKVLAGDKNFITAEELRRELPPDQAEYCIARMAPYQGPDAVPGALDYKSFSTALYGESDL

| effect of a mutation on the interaction | Variant |
| --- | --- |
| with no effect | Q10P |
| with no effect | S48P |
